Experimental data taken from PMC4445638 (2015).

T1: DLL4 N-EGF2 (Rattus norvegicus, UniProt D3ZHH1)
T1 chain: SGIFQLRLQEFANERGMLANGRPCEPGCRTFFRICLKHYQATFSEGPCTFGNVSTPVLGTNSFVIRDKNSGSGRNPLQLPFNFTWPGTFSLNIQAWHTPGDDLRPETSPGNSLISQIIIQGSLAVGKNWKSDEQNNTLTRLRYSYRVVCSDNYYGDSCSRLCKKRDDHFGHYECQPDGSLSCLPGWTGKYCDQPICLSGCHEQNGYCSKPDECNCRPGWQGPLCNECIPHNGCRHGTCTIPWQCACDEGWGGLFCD

B1: Notch1 EGF10-14 (peptide)
chain: CLTLL
B2: Notch1 411-530 (protein)
chain: QDVDECALGANPCEHAGKCLNTLGSFECQCLQGYTGPRCEIDVNECISNPCQNDATCLDQIGEFQCICMPGYEGVYCEINTDECASSPCLHNGRCVDKINEFLCQCPKGFSGHLCQYDVD
B3: Notch1 EGF1-14 (peptide)
chain: MPRLLAPLLCLTLL

Target: T1, DLL4 N-EGF2
Experiment: SPR

Question: For B1, which Kd is on record?
Answer: Its Kd is 8.6 µM.

Question: How did the Kd turn out when B2 was run?
Answer: Its Kd is 7.5 µM.

Question: For B3, which Kd is on record?
Answer: The Kd was 12.7 µM.
